Our source for the Kd values is paper PMC10338859.

Series [1] relates to PR20, poly(PR) dipeptide repeat peptide. Nature of the series: BLI. Conditions: apparent Kd, 1:1 equilibrium fit; BLI: 10 mM Tris-HCl, 1 mM disodium EDTA, pH 8.0, 150 mM NaCl, 0.1 mg/ml BSA, 0.01% Tween-20, 25 C; RNA on streptavidin ….
The subject of series [2] is GR20, poly(GR) dipeptide repeat peptide. In words: BLI. The note with it: apparent Kd, 1:1 equilibrium fit; BLI: 10 mM Tris-HCl, 1 mM disodium EDTA, pH 8.0, 150 mM NaCl, 0.1 mg/ml BSA, 0.01% Tween-20, 25 C; RNA on streptavidin ….

For “AUAAUAUAAUAUAAUAUAAUAUAAU [poly(AUAAU) RNA]”, the Kd amounted to 11.1 nM in series [1] and 6.1 nM in series [2].
For “GAGAAGAGAAGAGAAGAGAAGAGAA [poly(GAAGA) RNA]”, in that order: 2.6 nM and 3.6 nM.
